{"source": "patent US20230250154A1", "about": "(CYTONICS, published 2023)", "binders": {"B1": {"name": "Variant A2M, bait region SEQ ID NO 98 (other)", "chain": "SVSGKPQYMVLVPSLLHTETTEKGCVLLSYLNETVTVSASLESVRGNRSLFTDLEAENDVLHCVAFAVPKSSSNEEVMFLTVQVKGPTQEFKKRTTVMVKNEDSLVFVQTDKSIYKPGQTVKFRVVSMDENFHPLNELIPLVYIQDPKGNRIAQWQSFQLEGGLKQFSFPLSSEPFQGSYKVVVQKKSGGRTEHPFTVEEFVLPKFEVQVTVPKIITILEEEMNVSVCGLYTYGKPVPGHVTVSICRKYSDASDCHGEDSQAFCEKFSGQLNSHGCFYQQVKTKVFQLKRKEYEMKLHTEAQIQEEGTVVELTGRQSSEITRTITKLSFVKVDSHFRQGIPFFGQVRLVDGKGVPIPNKVIFIRGNEANYYSNATTDEHGLVQFSINTTNVMGTSLTVRVNYKDRSPCYGYQWVSEEHEEAHHTAYLVFSPSKSFVHLEPMSHELPCGHTQTVQAHYILNGGTLLGLKKLSFYYLIMAKGGIVRTGTHGLLVKQEDMKGHFSISIPVKSDIAPVARLLIYAVLPTGDVIGDSAKYDVENCLANKVDLSFSPSQSLPASHAHLRVTAAPQSVCALRAVDQSVLLMKPDAELSASSVYNLLPEKDLTGFPGPLNDQDDEDCINRHNVYINGITYTPVSSTNEKDMYSFLEDMGLKAFTNSKIRKPKMCPQLEQYEMHGPEGLRVGGARGLEGFYESDVMGRGHARLVHVEEPHTKLRKYFPETWIWDLVVVNSAGVAEVGVTVPDTITEWKAGAFCLSEDAGLGISSTASLRAFQPFFVELTMPYSVIRGEAFTLKATVLNYLPKCIRVSVQLEASPAFLAVPVEKEQAPHCICANGRQTVSWAVTPKSLGNVNFTVSAEALESQELCGTEVPSVPEHGRKDTVIKPLLVEPEGLEKETTFNSLLCPSGGEVSEELSLKLPPNVVEESARASVSVLGDILGSAMQNTQNLLQMPYGCGEQNMVLFAPNIYVLDYLNETQQLTPEIKSKAIGYLNTGYQRQLNYKHYDGSYSTFGERYGRNQGNTWLTAFVLKTFAQARAYIFIDEAHITQALIWLSQRQKDNGCFRSSGSLLNNAIKGGVEDEVTLSAYITIALLEIPLTVTHPVVRNALFCLESAWKTAQEGDHGSHVYTKALLAYAFALAGNQDKRKEVLKSLNEEAVKKDNSVHWERPQKPKAPVGHFYEPQAPSAEVEMTSYVLLAYLTAQPAPTSEDLTSATNIVKWITKQQNAQGGFSSTQDTVVALHALSKYGAATFTRTGKAAQVTIQSSGTFSSKFQVDNNNRLLLQQVSLPELPGEYSMKVTGEGCVYLQTSLKYNILPEKEEFPFALGVQTLPQTCDEPKAHTSFQISLSVSYTGSRSASNMAIVDVKMVSGFIPLKPTVKMLERSNHVSRTEVSSNHVLIYLDKVSNQTLSLFFTVLQDVPVRDLKPAIVKVYDYYETDEFAIAEYNAPCSKDLGNADYKDDDDKGASHHHHHH"}}, "test_in_all_cases": "cell-based or functional assay", "key": {"[1]": {"molecular_target": "T1, ADAMTS4 (human, UniProt O75173 213-685, limits assumed)", "T1 sequence (looked up)": "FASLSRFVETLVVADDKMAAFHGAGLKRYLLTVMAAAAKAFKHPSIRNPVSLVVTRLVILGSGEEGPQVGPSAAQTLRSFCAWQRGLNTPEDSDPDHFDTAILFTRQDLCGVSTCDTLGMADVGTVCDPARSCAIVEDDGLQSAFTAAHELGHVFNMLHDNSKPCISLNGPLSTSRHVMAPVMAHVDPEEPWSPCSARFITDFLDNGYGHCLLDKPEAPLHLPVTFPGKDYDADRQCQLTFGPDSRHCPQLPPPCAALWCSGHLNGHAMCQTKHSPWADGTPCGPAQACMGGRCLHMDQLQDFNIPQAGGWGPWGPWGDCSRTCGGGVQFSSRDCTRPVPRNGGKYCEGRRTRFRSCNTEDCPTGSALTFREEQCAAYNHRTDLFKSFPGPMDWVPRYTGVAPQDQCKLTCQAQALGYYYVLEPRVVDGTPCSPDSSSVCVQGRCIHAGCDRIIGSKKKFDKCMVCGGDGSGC"}, "[2]": {"molecular_target": "T2, ADAMTS5 (human, UniProt Q9UNA0 262-622, limits assumed)", "T2 sequence (looked up)": "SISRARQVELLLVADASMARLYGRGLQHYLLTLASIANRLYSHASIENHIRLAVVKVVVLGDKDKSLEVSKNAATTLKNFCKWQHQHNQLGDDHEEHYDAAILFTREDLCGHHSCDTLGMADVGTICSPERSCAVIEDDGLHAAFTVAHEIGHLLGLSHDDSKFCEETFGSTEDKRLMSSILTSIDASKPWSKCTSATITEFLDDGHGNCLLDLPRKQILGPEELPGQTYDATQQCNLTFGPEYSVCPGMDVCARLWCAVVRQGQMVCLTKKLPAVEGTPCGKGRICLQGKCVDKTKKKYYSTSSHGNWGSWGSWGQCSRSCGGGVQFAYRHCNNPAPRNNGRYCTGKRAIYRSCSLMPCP"}, "[3]": {"molecular_target": "MMP13 (human, UniProt P45452 104-471, limits assumed)"}}}
{"binder": "B1", "values": [{"measurement": "Protease Inhibition (% of WT)", "setting": "[1]", "value": "124 % of WT"}, {"measurement": "Protease Inhibition (% of WT)", "setting": "[2]", "value": "82 % of WT"}, {"measurement": "Protease Inhibition (% of WT)", "setting": "[3]", "value": "148 % of WT"}]}
